Assay [1] deals with E. coli RNAP core enzyme carrying a hexahistidine-tagged β’ subunit (E. coli) (UniProt P0A8T7).
Assay [2] has the same target. The source holds these as a separate data set.

Chain of UniProt P0A8T7 (P0A8T7 whole entry, looked up): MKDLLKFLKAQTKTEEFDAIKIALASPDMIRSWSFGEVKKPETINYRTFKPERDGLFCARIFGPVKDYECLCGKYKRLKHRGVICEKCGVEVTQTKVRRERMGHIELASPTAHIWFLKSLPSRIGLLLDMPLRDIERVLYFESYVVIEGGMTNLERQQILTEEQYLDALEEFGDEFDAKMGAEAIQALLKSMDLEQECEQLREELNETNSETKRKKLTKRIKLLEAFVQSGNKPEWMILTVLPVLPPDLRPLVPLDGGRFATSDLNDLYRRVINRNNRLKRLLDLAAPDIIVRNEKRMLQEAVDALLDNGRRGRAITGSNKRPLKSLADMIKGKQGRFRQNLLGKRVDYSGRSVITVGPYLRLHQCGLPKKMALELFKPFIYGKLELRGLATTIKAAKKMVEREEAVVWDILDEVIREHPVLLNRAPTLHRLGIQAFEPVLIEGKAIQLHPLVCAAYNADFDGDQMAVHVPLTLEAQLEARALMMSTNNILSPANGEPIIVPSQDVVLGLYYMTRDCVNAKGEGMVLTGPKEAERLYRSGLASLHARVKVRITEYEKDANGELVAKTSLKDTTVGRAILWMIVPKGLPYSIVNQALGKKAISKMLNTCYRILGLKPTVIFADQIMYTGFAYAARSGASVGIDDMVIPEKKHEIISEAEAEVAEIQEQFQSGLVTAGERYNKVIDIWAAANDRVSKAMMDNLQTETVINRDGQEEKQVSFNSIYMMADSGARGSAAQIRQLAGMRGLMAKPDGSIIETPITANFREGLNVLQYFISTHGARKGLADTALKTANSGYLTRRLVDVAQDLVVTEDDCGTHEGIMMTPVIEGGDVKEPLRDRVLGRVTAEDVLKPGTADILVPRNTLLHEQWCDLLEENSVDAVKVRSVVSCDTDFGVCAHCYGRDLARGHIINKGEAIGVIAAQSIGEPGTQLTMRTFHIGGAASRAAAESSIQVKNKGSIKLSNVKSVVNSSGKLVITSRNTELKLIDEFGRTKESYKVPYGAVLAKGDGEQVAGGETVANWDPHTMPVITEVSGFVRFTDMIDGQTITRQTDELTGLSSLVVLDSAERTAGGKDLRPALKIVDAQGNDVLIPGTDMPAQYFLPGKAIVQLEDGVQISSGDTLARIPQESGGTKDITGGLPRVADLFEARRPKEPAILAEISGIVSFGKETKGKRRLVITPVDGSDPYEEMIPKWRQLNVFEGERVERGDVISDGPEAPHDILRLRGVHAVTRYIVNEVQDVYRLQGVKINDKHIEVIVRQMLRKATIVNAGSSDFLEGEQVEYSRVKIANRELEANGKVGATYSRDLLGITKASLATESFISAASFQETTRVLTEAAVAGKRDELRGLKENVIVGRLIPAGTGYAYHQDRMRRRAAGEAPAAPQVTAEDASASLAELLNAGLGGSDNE

B1: Nun protein of HK022 phage (natural protein)
chain: VKKTIYVNPDSGQNRKVSDRGLTSRDRRRIARWEKRIAYALKNGVTPGFNAIDDGPEYKINEDPMDKVDKALATPFPRDVEKIEDEKYEDVMHRVVNHAHQRNPNKKWS
B1: the apparent pyrophosphorolysis rate of TEC U10 after pre-incubation with 1 μM Nun (0.21 s^-1 without Nun); 2.5 mM PPi, 5 mM MgCl2 in assay [1] is 2.4 s⁻¹. Also, the apparent Vmax of pyrophosphorolysis of TEC U10 with 1 μM Nun (15.7 min^-1 without Nun); [PPi] 10 μM to 2.5 mM in assay [2] amounted to 160 min⁻¹.
